Source: doi:10.1101/293530

Tests used:
[1] = molecular target: mCherry-IZ-sCD95L; assay: fluorescence correlation spectroscopy
[2] = molecular target: mCherry-sCD95L; assay: fluorescence correlation spectroscopy
[3] = molecular target: T1, CD95-mEos2 (human), P25445; assay: quantitative PALM; conditions: remark: other sources report otherwise
T1 chain: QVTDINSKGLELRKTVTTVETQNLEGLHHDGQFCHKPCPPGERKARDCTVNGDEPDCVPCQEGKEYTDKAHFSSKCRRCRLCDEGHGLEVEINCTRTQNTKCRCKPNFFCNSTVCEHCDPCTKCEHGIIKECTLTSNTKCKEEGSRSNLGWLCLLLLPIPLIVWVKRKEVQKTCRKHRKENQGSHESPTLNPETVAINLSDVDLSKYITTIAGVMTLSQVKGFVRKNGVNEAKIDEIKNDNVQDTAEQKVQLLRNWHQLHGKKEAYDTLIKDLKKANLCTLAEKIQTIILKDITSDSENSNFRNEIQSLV

mCherry-IZ-sCD95L (ligand)
stoichiometry N [1]: 3

mCherry-sCD95L (ligand)
stoichiometry N [2]: 3

B1: CD95-mEos2, P25445 26-335 (receptor)
chain: QVTDINSKGLELRKTVTTVETQNLEGLHHDGQFCHKPCPPGERKARDCTVNGDEPDCVPCQEGKEYTDKAHFSSKCRRCRLCDEGHGLEVEINCTRTQNTKCRCKPNFFCNSTVCEHCDPCTKCEHGIIKECTLTSNTKCKEEGSRSNLGWLCLLLLPIPLIVWVKRKEVQKTCRKHRKENQGSHESPTLNPETVAINLSDVDLSKYITTIAGVMTLSQVKGFVRKNGVNEAKIDEIKNDNVQDTAEQKVQLLRNWHQLHGKKEAYDTLIKDLKKANLCTLAEKIQTIILKDITSDSENSNFRNEIQSLV
fraction of dimers [3]: 42% | fraction of monomers [3]: 58%
